# Measured values taken from PMC9482650, “Quantitative fragmentomics allow affinity mapping of interactomes” (Nature Communications, 2022).
# T1: PDZD2_2, O15018
# T1 sequence (O15018 329-429, limits assumed, looked up): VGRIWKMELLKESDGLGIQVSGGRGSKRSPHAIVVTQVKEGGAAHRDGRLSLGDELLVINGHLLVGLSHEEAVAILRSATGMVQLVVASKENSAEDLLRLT
# T2: LIN7C, Q9NUP9
# T2 sequence (Q9NUP9 88-185, limits assumed, looked up): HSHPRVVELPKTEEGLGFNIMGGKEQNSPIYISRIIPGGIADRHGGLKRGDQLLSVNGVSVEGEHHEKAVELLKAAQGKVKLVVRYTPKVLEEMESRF
# T3: HTRA4, P83105
# T3 sequence (P83105 378-476, limits assumed, looked up): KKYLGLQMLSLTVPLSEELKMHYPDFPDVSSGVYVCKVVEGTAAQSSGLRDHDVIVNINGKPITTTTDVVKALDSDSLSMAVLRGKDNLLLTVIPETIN
# T4: DFNB31_3, Q9P202
# T4 sequence (Q9P202 811-907, limits assumed, looked up): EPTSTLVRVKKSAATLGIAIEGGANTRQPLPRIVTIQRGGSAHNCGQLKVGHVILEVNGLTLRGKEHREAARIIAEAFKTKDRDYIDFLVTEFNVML
# T5: DLG3_3, Q92796
# T5 sequence (Q92796 374-475, limits assumed, looked up): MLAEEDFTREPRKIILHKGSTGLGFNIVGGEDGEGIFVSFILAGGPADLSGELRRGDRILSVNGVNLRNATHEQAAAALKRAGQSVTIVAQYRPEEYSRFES
# T6: DFNB31_2, Q9P202
# T6 sequence (Q9P202 274-371, limits assumed, looked up): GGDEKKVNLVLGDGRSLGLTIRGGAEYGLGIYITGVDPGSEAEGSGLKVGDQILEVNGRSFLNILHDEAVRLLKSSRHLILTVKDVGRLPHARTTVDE
# T7: RADIL, Q96JH8
# T7 sequence (Q96JH8 971-1071, limits assumed, looked up): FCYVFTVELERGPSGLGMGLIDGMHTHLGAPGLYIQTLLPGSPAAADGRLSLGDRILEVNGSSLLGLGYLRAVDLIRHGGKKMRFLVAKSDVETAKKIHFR
# T8: TX1BP3, O14907
# T8 sequence (O14907 10-122, limits assumed, looked up): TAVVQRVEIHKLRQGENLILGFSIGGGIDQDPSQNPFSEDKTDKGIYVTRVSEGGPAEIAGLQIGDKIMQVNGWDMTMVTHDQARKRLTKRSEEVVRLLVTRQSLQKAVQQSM
# T9: MPP7, Q5T2T1
# T9 sequence (Q5T2T1 134-230, limits assumed, looked up): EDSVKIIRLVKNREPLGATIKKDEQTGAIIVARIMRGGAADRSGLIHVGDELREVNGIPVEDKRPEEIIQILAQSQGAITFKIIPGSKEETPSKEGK
# T10: PTPN13_1, Q12923
# T10 sequence (Q12923 1088-1188, limits assumed, looked up): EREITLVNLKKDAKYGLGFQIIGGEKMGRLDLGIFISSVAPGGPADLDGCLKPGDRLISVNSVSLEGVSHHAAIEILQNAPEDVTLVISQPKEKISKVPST
# T11: DLG3_2, Q92796
# T11 sequence (Q92796 221-321, limits assumed, looked up): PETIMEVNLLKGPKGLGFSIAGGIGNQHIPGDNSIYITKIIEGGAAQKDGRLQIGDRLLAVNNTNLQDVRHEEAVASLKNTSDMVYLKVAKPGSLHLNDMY
# B1: CLDN19, Q8N6F1 (peptide)
# chain: PASAKGPLGV
# B2: MARCHF4, Q9P2E8 (peptide)
# chain: RELVMRVTTV
# B3: SLC6A3, Q01959 (peptide)
# chain: QFTLRHWLKV
# B4: PPFIA1, Q13136 (peptide)
# chain: DSATVRTYSC
# Molecular target: LAP2, Q96RT1
# Sequence (Q96RT1 other isoform, or with tags, fused parts or gaps): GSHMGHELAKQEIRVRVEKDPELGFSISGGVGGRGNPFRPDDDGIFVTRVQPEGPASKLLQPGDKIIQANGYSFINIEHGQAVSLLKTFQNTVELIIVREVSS
# Experiment: holdup assay
# Design: key: below the threshold = too weak to quantify, mostly under pKd 3.1 to 4
# Conditions: plain residues with an end cap or a label only (N-terminal biotin on a linker: ado-ado)
row,Binder,pKd
1,B1,below the threshold
2,B2,3.79
3,B3,below the threshold
4,B4,below the threshold

# Molecular target: FRMPD2_3, Q68DX3
# Sequence (Q68DX3 1073-1166): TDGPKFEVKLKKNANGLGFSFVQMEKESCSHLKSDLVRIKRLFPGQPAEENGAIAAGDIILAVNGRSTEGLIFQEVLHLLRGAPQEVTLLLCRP
# Experiment: holdup assay
# Design: key: below the threshold = too weak to quantify, mostly under pKd 3.1 to 4
# Conditions: plain residues with an end cap or a label only (N-terminal biotin on a linker: ado-ado)
row,Binder,pKd
1,B1,below the threshold
2,B2,below the threshold
3,B3,below the threshold
4,B4,below the threshold

# Molecular target: Inadl_4, Q8NI35
# Sequence (Q8NI35 547-651): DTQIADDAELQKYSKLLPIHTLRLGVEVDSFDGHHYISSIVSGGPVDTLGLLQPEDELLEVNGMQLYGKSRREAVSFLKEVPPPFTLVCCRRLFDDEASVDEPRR
# Experiment: holdup assay
# Design: key: below the threshold = too weak to quantify, mostly under pKd 3.1 to 4
# Conditions: plain residues with an end cap or a label only (N-terminal biotin on a linker: ado-ado)
row,Binder,pKd
1,B1,below the threshold
2,B2,below the threshold
3,B3,below the threshold
4,B4,below the threshold

# Molecular target: PICK1, Q9NRD5
# Sequence (Q9NRD5 17-115): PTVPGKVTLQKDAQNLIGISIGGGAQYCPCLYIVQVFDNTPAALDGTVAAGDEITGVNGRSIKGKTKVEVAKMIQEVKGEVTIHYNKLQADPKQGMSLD
# Experiment: holdup assay
# Design: key: below the threshold = too weak to quantify, mostly under pKd 3.1 to 4
# Conditions: plain residues with an end cap or a label only (N-terminal biotin on a linker: ado-ado)
row,Binder,pKd
1,B1,below the threshold
2,B2,below the threshold
3,B3,3.69
4,B4,4.15

# Molecular target: MAGI2_5, Q86UL8
# Sequence (Q86UL8 915-1017): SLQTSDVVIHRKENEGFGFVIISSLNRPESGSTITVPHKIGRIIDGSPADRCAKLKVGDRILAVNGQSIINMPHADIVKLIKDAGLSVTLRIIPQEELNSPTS
# Experiment: holdup assay
# Design: key: below the threshold = too weak to quantify, mostly under pKd 3.1 to 4
# Conditions: plain residues with an end cap or a label only (N-terminal biotin on a linker: ado-ado)
row,Binder,pKd
1,B1,below the threshold
2,B2,4.05
3,B3,below the threshold
4,B4,below the threshold

# Molecular target: Inadl_1, Q8NI35
# Sequence (Q8NI35 113-229): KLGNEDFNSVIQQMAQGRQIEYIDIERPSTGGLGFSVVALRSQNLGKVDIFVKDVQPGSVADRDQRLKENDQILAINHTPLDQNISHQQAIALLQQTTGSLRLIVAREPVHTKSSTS
# Experiment: holdup assay
# Design: key: below the threshold = too weak to quantify, mostly under pKd 3.1 to 4
# Conditions: plain residues with an end cap or a label only (N-terminal biotin on a linker: ado-ado)
row,Binder,pKd
1,B1,below the threshold
2,B2,below the threshold
3,B3,below the threshold
4,B4,below the threshold

# Molecular target: T1, PDZD2_2, O15018
# Experiment: holdup assay
# Design: key: below the threshold = too weak to quantify, mostly under pKd 3.1 to 4
# Conditions: plain residues with an end cap or a label only (N-terminal biotin on a linker: ado-ado)
row,Binder,pKd
1,B1,below the threshold
2,B2,4.46
3,B3,below the threshold
4,B4,3.7

# Molecular target: T2, LIN7C, Q9NUP9
# Experiment: holdup assay
# Design: key: below the threshold = too weak to quantify, mostly under pKd 3.1 to 4
# Conditions: plain residues with an end cap or a label only (N-terminal biotin on a linker: ado-ado)
row,Binder,pKd
1,B1,below the threshold
2,B2,4.3
3,B3,below the threshold
4,B4,below the threshold

# Molecular target: T3, HTRA4, P83105
# Experiment: holdup assay
# Design: key: below the threshold = too weak to quantify, mostly under pKd 3.1 to 4
# Conditions: plain residues with an end cap or a label only (N-terminal biotin on a linker: ado-ado)
row,Binder,pKd
1,B1,below the threshold
2,B2,4.74
3,B3,4.1
4,B4,below the threshold

# Molecular target: T4, DFNB31_3, Q9P202
# Experiment: holdup assay
# Design: key: below the threshold = too weak to quantify, mostly under pKd 3.1 to 4
# Conditions: plain residues with an end cap or a label only (N-terminal biotin on a linker: ado-ado)
row,Binder,pKd
1,B1,below the threshold
2,B2,4.33
3,B3,below the threshold
4,B4,3.51

# Molecular target: T5, DLG3_3, Q92796
# Experiment: holdup assay
# Design: key: below the threshold = too weak to quantify, mostly under pKd 3.1 to 4
# Conditions: plain residues with an end cap or a label only (N-terminal biotin on a linker: ado-ado)
row,Binder,pKd
1,B1,below the threshold
2,B2,4.63
3,B3,below the threshold
4,B4,below the threshold

# Molecular target: T6, DFNB31_2, Q9P202
# Experiment: holdup assay
# Design: key: below the threshold = too weak to quantify, mostly under pKd 3.1 to 4
# Conditions: plain residues with an end cap or a label only (N-terminal biotin on a linker: ado-ado)
row,Binder,pKd
1,B1,below the threshold
2,B2,below the threshold
3,B3,below the threshold
4,B4,below the threshold

# Molecular target: T7, RADIL, Q96JH8
# Experiment: holdup assay
# Design: key: below the threshold = too weak to quantify, mostly under pKd 3.1 to 4
# Conditions: plain residues with an end cap or a label only (N-terminal biotin on a linker: ado-ado)
row,Binder,pKd
1,B1,below the threshold
2,B2,4.74
3,B3,4.42
4,B4,below the threshold

# Molecular target: T8, TX1BP3, O14907
# Experiment: holdup assay
# Design: key: below the threshold = too weak to quantify, mostly under pKd 3.1 to 4
# Conditions: plain residues with an end cap or a label only (N-terminal biotin on a linker: ado-ado)
row,Binder,pKd
1,B1,below the threshold
2,B2,4.75
3,B3,below the threshold
4,B4,below the threshold

# Molecular target: NOS1, P29475
# Sequence (P29475 9-101): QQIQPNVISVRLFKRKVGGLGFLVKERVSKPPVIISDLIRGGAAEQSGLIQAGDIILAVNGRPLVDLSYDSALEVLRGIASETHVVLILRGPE
# Experiment: holdup assay
# Design: key: below the threshold = too weak to quantify, mostly under pKd 3.1 to 4
# Conditions: plain residues with an end cap or a label only (N-terminal biotin on a linker: ado-ado)
row,Binder,pKd
1,B1,below the threshold
2,B2,3.71
3,B3,below the threshold
4,B4,below the threshold

# Molecular target: Inadl_6, Q8NI35
# Sequence (Q8NI35 1058-1167): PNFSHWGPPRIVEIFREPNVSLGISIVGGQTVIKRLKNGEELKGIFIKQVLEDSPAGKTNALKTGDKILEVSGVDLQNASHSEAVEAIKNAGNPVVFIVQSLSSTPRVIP
# Experiment: holdup assay
# Design: key: below the threshold = too weak to quantify, mostly under pKd 3.1 to 4
# Conditions: plain residues with an end cap or a label only (N-terminal biotin on a linker: ado-ado)
row,Binder,pKd
1,B1,below the threshold
2,B2,3.95
3,B3,below the threshold
4,B4,below the threshold

# Molecular target: MAGI2_2, Q86UL8
# Sequence (Q86UL8 410-522): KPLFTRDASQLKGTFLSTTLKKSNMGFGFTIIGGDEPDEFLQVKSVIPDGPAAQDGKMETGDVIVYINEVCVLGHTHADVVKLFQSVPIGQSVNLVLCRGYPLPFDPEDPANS
# Experiment: holdup assay
# Design: key: below the threshold = too weak to quantify, mostly under pKd 3.1 to 4
# Conditions: plain residues with an end cap or a label only (N-terminal biotin on a linker: ado-ado)
row,Binder,pKd
1,B1,below the threshold
2,B2,5.12
3,B3,3.68
4,B4,below the threshold

# Molecular target: T9, MPP7, Q5T2T1
# Experiment: holdup assay
# Design: key: below the threshold = too weak to quantify, mostly under pKd 3.1 to 4
# Conditions: plain residues with an end cap or a label only (N-terminal biotin on a linker: ado-ado)
row,Binder,pKd
1,B1,below the threshold
2,B2,below the threshold
3,B3,below the threshold
4,B4,3.92

# Molecular target: SCRIB_3, Q14160
# Sequence (Q14160 999-1103): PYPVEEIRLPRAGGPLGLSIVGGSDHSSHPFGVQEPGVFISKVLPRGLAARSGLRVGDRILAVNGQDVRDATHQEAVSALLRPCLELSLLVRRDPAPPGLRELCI
# Experiment: holdup assay
# Design: key: below the threshold = too weak to quantify, mostly under pKd 3.1 to 4
# Conditions: plain residues with an end cap or a label only (N-terminal biotin on a linker: ado-ado)
row,Binder,pKd
1,B1,below the threshold
2,B2,4.73
3,B3,3.51
4,B4,below the threshold

# Molecular target: T10, PTPN13_1, Q12923
# Experiment: holdup assay
# Design: key: below the threshold = too weak to quantify, mostly under pKd 3.1 to 4
# Conditions: plain residues with an end cap or a label only (N-terminal biotin on a linker: ado-ado)
row,Binder,pKd
1,B1,below the threshold
2,B2,below the threshold
3,B3,below the threshold
4,B4,below the threshold

# Molecular target: GRIP2_4, Q9C0E4
# Sequence (Q9C0E4 446-548): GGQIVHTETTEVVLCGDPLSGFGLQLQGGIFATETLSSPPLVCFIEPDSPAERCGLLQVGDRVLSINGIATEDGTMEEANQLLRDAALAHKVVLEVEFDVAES
# Experiment: holdup assay
# Design: key: below the threshold = too weak to quantify, mostly under pKd 3.1 to 4
# Conditions: plain residues with an end cap or a label only (N-terminal biotin on a linker: ado-ado)
row,Binder,pKd
1,B1,below the threshold
2,B2,below the threshold
3,B3,below the threshold
4,B4,below the threshold

# Molecular target: Inadl_5, Q8NI35
# Sequence (Q8NI35 673-780): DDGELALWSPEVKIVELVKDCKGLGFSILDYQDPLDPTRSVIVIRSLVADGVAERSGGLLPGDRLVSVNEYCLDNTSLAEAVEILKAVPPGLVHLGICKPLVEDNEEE
# Experiment: holdup assay
# Design: key: below the threshold = too weak to quantify, mostly under pKd 3.1 to 4
# Conditions: plain residues with an end cap or a label only (N-terminal biotin on a linker: ado-ado)
row,Binder,pKd
1,B1,below the threshold
2,B2,below the threshold
3,B3,3.62
4,B4,below the threshold

# Molecular target: MAST1, Q9Y2H9
# Sequence (Q9Y2H9 962-1065): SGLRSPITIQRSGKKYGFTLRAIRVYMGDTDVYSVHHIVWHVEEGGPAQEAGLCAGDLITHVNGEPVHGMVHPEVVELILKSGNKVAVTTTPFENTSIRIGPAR
# Experiment: holdup assay
# Design: key: below the threshold = too weak to quantify, mostly under pKd 3.1 to 4
# Conditions: plain residues with an end cap or a label only (N-terminal biotin on a linker: ado-ado)
row,Binder,pKd
1,B1,3.69
2,B2,4.61
3,B3,4.24
4,B4,below the threshold

# Molecular target: HTRA2, O43464
# Sequence (O43464 355-458): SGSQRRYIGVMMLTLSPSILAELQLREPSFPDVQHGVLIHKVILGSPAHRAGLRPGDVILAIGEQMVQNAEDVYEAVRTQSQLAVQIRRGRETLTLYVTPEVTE
# Experiment: holdup assay
# Design: key: below the threshold = too weak to quantify, mostly under pKd 3.1 to 4
# Conditions: plain residues with an end cap or a label only (N-terminal biotin on a linker: ado-ado)
row,Binder,pKd
1,B1,below the threshold
2,B2,3.83
3,B3,4.06
4,B4,3.66

# Molecular target: T11, DLG3_2, Q92796
# Experiment: holdup assay
# Design: key: below the threshold = too weak to quantify, mostly under pKd 3.1 to 4
# Conditions: plain residues with an end cap or a label only (N-terminal biotin on a linker: ado-ado)
row,Binder,pKd
1,B1,below the threshold
2,B2,5.22
3,B3,below the threshold
4,B4,4.08

# Molecular target: IL16_3, Q14005
# Sequence (Q14005 1107-1207): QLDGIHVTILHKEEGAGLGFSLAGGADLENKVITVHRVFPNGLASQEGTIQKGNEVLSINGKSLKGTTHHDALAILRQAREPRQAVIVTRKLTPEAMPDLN
# Experiment: holdup assay
# Design: key: below the threshold = too weak to quantify, mostly under pKd 3.1 to 4
# Conditions: plain residues with an end cap or a label only (N-terminal biotin on a linker: ado-ado)
row,Binder,pKd
1,B1,below the threshold
2,B2,below the threshold
3,B3,below the threshold
4,B4,below the threshold

# Molecular target: DLG4_3, P78352
# Sequence (P78352 306-403): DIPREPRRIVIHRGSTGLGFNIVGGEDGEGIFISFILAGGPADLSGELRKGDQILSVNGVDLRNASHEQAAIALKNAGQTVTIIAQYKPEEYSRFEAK
# Experiment: holdup assay
# Design: key: below the threshold = too weak to quantify, mostly under pKd 3.1 to 4
# Conditions: plain residues with an end cap or a label only (N-terminal biotin on a linker: ado-ado)
row,Binder,pKd
1,B1,below the threshold
2,B2,4.87
3,B3,below the threshold
4,B4,below the threshold
